# Measured values as given in the DeepSol protein solubility set.
# Experiment: soluble on expression in E. coli; label from the status in PepcDB or PDB records
row,Sequence,soluble on expression in E. coli
1,MSLEFLEQEGQEVLTKEIKAGFCEITPSSITEQTTKPQLDETQLVDEYVHTKELETTPIPISFATKEVLFEEVFNTPSTQQVDESVLVNEYIELTQQIKNASEQVSSNHTHKFSVATEPAATKAVSETMLLDDYVEMVEQDVQAQTALPQAALDPTVSLTFSSPIDSNAILVYPEMKVPHVFDTVAPTTTTVPLDQTQLLDELVEVPVLTHTVTPAPLQPKAAPTNFALDQTQLVDELVTVPLTHTLVNESAPVTPVVVTSPAAEHSFSITTVDKANLTNALSQTVVIKPAEDSAHQSAVLDKEIATKQAQLQQLQAQIELRQAQLETPPVTYMGVEEYKLLPVQDVVPVQPTVSFEMTLLQEQLDKALKHNAALQIQLEEQLAKPLQYDQSPVLQERIELLQNQNTNLTQELNELQQKLFKSQNNSLLLARLEEENRTLKQHLQNNLPEANQLNFVLEKQLEQLQQDKHSLTLQIEQYKFDSKKHQEQLALIPSLRSEINSLETEVISLKQTNQRLSLIERENNFLKTEIKQLRETKLNDENTKYRNLLKQYELMRADSDAKLKELEHEQHLAHQHHQEQLAQLQRHNEALVKELDQVKATNFELGLAAQGFEQQKVVLEQKNSSLLASLQAAEENVQALGITNSELQNQLNVLEFTHKEKTAFDSKTLTLTKQQLEQTQFDLSLTQEQLATFKQQNQSLTDKLMASETQLNHLQQSDENLTQLQTQHELLQESYNKLQDEANHTQQQFHQAQNELDAAHQQLALFKQNNEELTDKCSNIQNELHDLNRVKTNWENLNTEHNLLQDKYAQQKEQMQHEHSNLAQIQAEHELLQESYNKVKAELNEIQITNLNEANAQYQDLLSAYELLQSNHNKLKQELQVLNQVNLEKQQLAQKLHNTHQSLSQTHAELTQLQAAYNNLQATPPVSDELLEQFNQVQLEKQRLLQQNLALVHELQYFNELNSSQTHEIKTKQDETVKEVIIVEKEIPVPPEKKPRLKKRDIVIENKEDALGKLSKKERIQAYAERLAKINGKQEGHHHHHH,not soluble
2,MGSDKIHHHHHHMAKIFDIKYGNDEKQKLDLYLQDSVAPLVFYTHGGGWWQGDKRKDTKIFDSLFSAGFSVASVNYRLADKNNPYPAQLDDCHSALTFLQQSDYKFRKDKIALLGASSGANISVSLSIETGYPTVSWSGQFDFKGFLKTHTAITGRKAVDNPDPDKGSRQQSYYKWLLEKLFNGDLSRVGEATLQHKITSKTGPVLLINSAAELAPVMEVYKMQEAYLENGIEVDTIIFPGDRHALGYADDALKPTIDFLETHLQ,not soluble
3,MKDSKFPYYFSNALLMLVPRFVYRAQAKRLLSTLTEAEKQYCLERVNYYNKCGQPFTVDSREQSYAKIGEFKKTKGWTYFFDTRQVIRYFPSEFTFNYINGDVTHIPNVPSFIKSRPIHGDNQNSVVLKLNQIRHFKFVDDEMSYHDKKDMVAWRGVGFQPHRCKVIQAFYDHPRCNIGQTRPQEGQPWEKGFMSIEEQLQYKFLLCIEGNDVATNLKWAMSSNSLVIMSKPKYETWFMEGKLEAGIHYVEVQDDYSDLPEKMDYYLANEQEALAIIENAHQWVEQFKDKRKERLISLMVADKYFTLSHQQLEHHHHHH,soluble
4,METEVMKSFNNELSSLFDSKNMSKNKIQDITKAAIKAKSQYKHVVFSVEKLINKCKPDQRLNVLYVIDSIVRASKHQLKEKDTFGPRFMKQFDKFLMPLLKCGQKEKMRTVRTLNLWMSNKVFKESEIQPLREMCKASGLTIDFEEVELAVKGKQADMSIYSGVYKKKPKRSSSSSQPKSRTPTNPHPDDGLLGAGPSSALRSVPDIPNFVLSEDYFLGTISEREMLELVQKFGIDRSGVLSKDKNLLQRALQIFAGSLSQKVEEVLAENNRINGSSIQNVLTKDFEYSDDEEEKEKEPQPEKQKNLPHAQVLLLAQSLLTQPQILAKLAEVLIPQGNPFGLPFPGEHIVPTSSAALTLGAPPPNLMALQQSLPPGFPNQQLGLPNLSGLNQAQLMNVQNAQNMLQLQQRAAQLQALQGNPNAQRNLLMLGNPLLNPFALQHGVNPMLNDLQAAAAAQQQAMLNEAAQSPEKKILELSGGNSGINNSGDVERARLREKEKERESKERRRMGLPPVRIGFTIIASRTLWLKKIPTNIVENDLKQAVESCGEASRVKVIGNRACAYITMENRRSANDVVSKMREVSVAKKMVKVYWARSPGMDSDQFSDLWDSNRGVLEIPYEKLPLDLVALCEGAMLDIESLPIEKKLLYKETGETVISIPPPNIQPPVPHPPPMGFPFQHQLTQLPGQPRPAGLPPGVPPMFNLNAPPPPGIPGYPPAPPPPGVGPPPPQGIPPMGFDPNKPPPPMFQQGFNAGAPPPPFGRGAGPMSSFPPPPRGGMHHMPPPPSFRGGRGGHGGPPPPHFDRRGGGGPPFRPENGRGRLLDQSEMWNREQREMRGGGGAGRDGGREHRDYDRDRSQIDRRRQDDMGARRRSRWGDDDRRDDDRRDDRRDDRRESRRRSPRSPRSPDRRTRRSPSYEREEPPVKKTSVEEETVSSTTLDELKPSVEPTPVPAPIPAPAPELKAAEEPVKIVAEHHEDQTDEVPMDLE,not soluble
5,MHRGGQPLKKRRGSFKMAELDQLPDESSSAKALVSLKEGSLSNTWNEKYSSLQKTPVWKGRNTSSAVEMPFRNSKRSRLFSDEDDRQINTRSPKRNQRVAMVPQKFTATMSTPDKKASQKIGFRLRNLLKLPKAHKWCIYEWFYSNIDKPLFEGDNDFCVCLKESFPNLKTRKLTRVEWGKIRRLMGKPRRCSSAFFEEERSALKQKRQKIRLLQQRKVADVSQFKDLPDEIPLPLVIGTKVTARLRGVHDGLFTGQIDAVDTLNATYRVTFDRTGLGTHTIPDYEVLSNEPHETMPIAAFGQKQRPSRFFMTPPRLHYTPPLQSPIIDNDPLLGQSPWRSKISGSDTETLGGFPVEFLIQVTRLSKILMIKKEHIKKLREMNTEAEKLKSYSMPISIEFQRRYATIVLELEQLNKDLNKVLHKVQQYCYELAPDQGLQPADQPTDMRRRCEEEAQEIVRHANSSTGQPCVENENLTDLISRLTAILLQIKCLAEGGDLNSFEFKSLTDSLNDIKSTIDASNISCFQNNVEIHVAHIQSGLSQMGNLHAFAANNTNRD,soluble
6,MDPRGTKRGAEKTEVAEPRNKLPRPAPSLPTDPALYSGPFPFYRRPSELGCFSLDAQRQYHGDARALRYYSPPPTNGPGPNFDLRDGYPDRYQPRDEEVQERLDHLLCWLLEHRGRLEGGPGWLAEAIVTWRGHLTKLLTTPYERQEGWQLAASRFQGTLYLSEVETPNARAQRLARPPLLRELMYMGYKFEQYMCAGELPLLHSPLPLPRG,not soluble
7,MRRVSINSFLEPNSPNVPNRVTIPDGDLRRNSDDTATDRISLTNQLGKSAYSTTTEDSIDSETSETRMDSSRTSEISGNVKEDPVSENQYVLENSESSESIVVDLEMPGMTLRSKASPRKRYMSKKEKDLNDEKKNFKDLVLTIGQNQIQDPDEDFQITKEAIDLLQSESDKILLEMFTSSNAIATAGERDILTPTDIQTARHIQMIMKKYKK,not soluble
8,GHMASGSLGELQESQSRLEAATKECQALEGRARAASEQARQLESEREALQQQHSVQVDQLRMQGQSVEAALRMERQAASEEKRKLAQLQVAYHQLFQEYDNHIKSSVVGSERKRGMQLEDLKQQLQQAEE,soluble
9,MNLSLHYNLDNRNAMKPHTLVKRSSSQVTDQAVEVIHERIQQGFYPVGSALPSQRELSAELGISRASLREALTRLAALGLLNIMAGKGAYVTAIESQPVEQWNIQFKISLKDFYQLRYILEGFSALLACEYISENDLVQLNTHFEQLESAIQQHNWQEAAENDFAFHRHIIDLSHNQSIIQSLKKQTEWMKQSQILPFVQPNLAYKTIQEHEQILQALIKRDGLMAEKAMRQHIIGAAQRAGVYFSSHS,not soluble
10,MRKPRITYLDVWANDERIGTLEKGAMYRFAYDNPNSSLLGLHYQDRSKVYISNNMPHIFAQYFPEGFLDAHITSKYAFHDAPFEDNEMLRLAILCRETLGRIHVRCNDPLFNEWIDGLEMKNPRILTERDLLGINARQVFQQYMAEIFHHGRFVSVSGIQQKMSLDAIRRNTKQTASYIAKGFDASEYPCLAANEFLCMQTIKQAGIAVAQTSLSEDSSVLLVRRFDVSEQGYFLGMEDFTSLRQYSVEDKYKGSYAAIAQIIRQISGRPDEDLIHFFNQLAASCILKNGDAHLKNFSVLYHDEYDVRLAPVYDVLDTSIYRVGTQGIFDAYDDTLALNLTNHGKKTYPSKNTLLDFAEKYCDLGREDASFMIDTIVQAKEQVLVKYSDVLRENEWLAQKWHFIPDENEEGLPFTFR,not soluble
11,MSTKNRTRRTTTRNIRFPNQMIEQINIALDQKGSGNFSAWVIEACRRRLTSEKRAYTSIKSDEE,soluble
